These results are taken from patent US20240392023A1 (ABCLON, published 2024).

Assay [1] addresses T1, CD30-His (Sino Biological, 10777-H08H) (UniProt P28908 19-379).
T1 construct: Bought protein; also called CD30-His protein; CD30 protein; not shown: His tag
T1 sequence (looked up): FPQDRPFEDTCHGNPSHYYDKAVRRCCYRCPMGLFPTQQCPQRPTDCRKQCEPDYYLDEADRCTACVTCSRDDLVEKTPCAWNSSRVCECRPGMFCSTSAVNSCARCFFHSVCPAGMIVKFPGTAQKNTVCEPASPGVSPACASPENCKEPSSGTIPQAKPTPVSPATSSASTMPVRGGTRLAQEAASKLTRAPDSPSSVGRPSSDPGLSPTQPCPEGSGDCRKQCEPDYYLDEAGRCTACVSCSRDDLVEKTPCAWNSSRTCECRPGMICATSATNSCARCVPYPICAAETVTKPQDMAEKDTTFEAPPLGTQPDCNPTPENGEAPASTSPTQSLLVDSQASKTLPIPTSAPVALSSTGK
Put plainly: ELISA, scFv-Fc titrated on plate coated with 1 µg/mL CD30-His. The procedure: For ELISA, the eleven purified anti-CD30 scFv-Fc forms and the positive control HRS scFV-Fc were 1/3 diluted for 10 points starting from 10 μg/mL in a plate coated with 1 μg/mL CD30-His protein. After treatment with a secondary antibody (anti-hIgG-Fc-HRP (Invitrogen, H10007)), a color was developed with TMB. OD₄₅₀ values were read using an ELISA reader, and EC₅₀ values were measured by means of Graph prism (FIG. 1, Table 3).

Assay [2] addresses T2, CD30 expressed on cells (CD30-293T, SUDHL1, HDLM-2) (UniProt P28908 19-595).
T2 sequence (looked up): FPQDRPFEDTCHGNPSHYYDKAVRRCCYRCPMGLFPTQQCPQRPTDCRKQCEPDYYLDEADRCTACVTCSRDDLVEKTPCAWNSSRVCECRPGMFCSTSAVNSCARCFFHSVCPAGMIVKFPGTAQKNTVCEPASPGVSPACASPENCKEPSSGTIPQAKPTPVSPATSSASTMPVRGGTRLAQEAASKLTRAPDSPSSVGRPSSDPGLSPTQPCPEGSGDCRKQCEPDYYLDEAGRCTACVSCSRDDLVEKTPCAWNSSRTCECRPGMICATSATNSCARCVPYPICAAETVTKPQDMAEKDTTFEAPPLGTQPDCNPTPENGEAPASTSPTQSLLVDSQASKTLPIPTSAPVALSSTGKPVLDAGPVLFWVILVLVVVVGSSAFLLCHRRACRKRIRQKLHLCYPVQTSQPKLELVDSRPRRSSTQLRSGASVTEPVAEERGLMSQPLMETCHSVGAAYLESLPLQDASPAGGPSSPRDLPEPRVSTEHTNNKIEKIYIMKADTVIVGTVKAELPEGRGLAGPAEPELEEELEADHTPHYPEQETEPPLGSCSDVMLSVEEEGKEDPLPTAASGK
Put plainly: cell-based or functional assay.

The target in assay [3] is T2, CD30 expressed on cells (CD30-293T, …). In words: cell-based or functional assay. The source holds these as a separate data set.
Assay [4] has the same target. In words: cell-based or functional assay. The source holds these as a separate data set.

B1: T1-36 anti-CD30 scFv-Fc (Fc fusion)
scFv: EVQLLESGGGLVQPGGSLRLSCAASGFTFSYYYMSWVRQAPGKGLEWVSYIGGGGSGTYYADSVKGRFTISRDNSKNTLYLQMNSLRAEDTAVYYCARGPYYGYFDYWGQGTLVTVSSGGGGSGGGGSGGGGSQSVLTQPPSASGTPGQRVTISCSGSSSNIGSNYVYWYQQLPGTAPKLLIYRNNQRPSGVPDRFSGSKSGTSASLAISGLRSEDEADYYCAAYPSYDSYVFGGGTKLTVLG
notes: scFv-Fc-conjugated form (Zb-Fc); also called Zb-Fc form; not shown: Fc of the scFv-Fc (Zb-Fc) form and its junction
In assay [1], B1 showed an EC50 of 0.021 mg/L.

B2: T1-7 anti-CD30 scFv-Fc (Fc fusion)
scFv: EVQLLESGGGLVQPGGSLRLSCAASGFTFSGYGMSWVRQAPGKGLEWVSYISSGSYYTYYADSVKGRFTISRDNSKNTLYLQMNSLRAEDTAVYYCARYRGDNDYYGYFDYWGQGTLVTVSSGGGGSGGGGSGGGGSQSVLTQPPSASGTPGQRVTISCSCSSSNIGNNAVSWYQQLPGTAPKLLIYRNNQRPSGVPDRFSGSKSGTSASLAISGLRSEDEADYYCAADYGSDYVFGGGTKLTVLG
notes: scFv-Fc-conjugated form (Zb-Fc); also called Zb-Fc form; not shown: Fc of the scFv-Fc (Zb-Fc) form and any junction to it
In assay [1], B2 had an EC50 of 0.048 mg/L.

B3: T2-2 anti-CD30 scFv-Fc (Fc fusion)
chain: EVQLLESGGGLVQPGGSLRLSCAASGFTFSSYHMSWVRQAPGKGLEWVSGIGYGHGGTYYADSVKGRFTISRDNSKNTLYLQMNSLRAEDTAVYYCARYDYDYSFDYWGQGTLVTVSSGGGGSGGGGSGGGGSQSVLTQPPSASGTPGQRVTISCSGSSSNIGSNYVYWYQQLPGTAPKLLIYRNNQRPSGVPDRFSGSKSGTSASLAISGLRSEDEADYYCAVSSPYSYVFGGGTKLTVLG
notes: scFv-Fc-conjugated form (Zb-Fc); also called Zb-Fc form; not shown: Fc of the scFv-Fc form (Zb-Fc)
Regarding B3, in assay [1], the EC50 worked out at 0.038 mg/L.

B4: T1-117 anti-CD30 scFv-Fc (Fc fusion)
scFv: EVQLLESGGGLVQPGGSLRLSCAASGFTFSYYGMSWVRQAPGKGLEWVSYISGYSSYTYYADSVKGRFTISRDNSKNTLYLQMNSLRAEDTAVYYCARYNDSGSFDYWGQGTLVTVSSGGGGSGGGGSGGGGSQSVLTQPPSASGTPGQRVTISCSGSSSNIGSNYVYWYQQLPGTAPKLLIYRNNQRPSGVPDRFSGSKSGTSASLAISGLRSEDEADYYCAADAGNRYVFGGGTKLTVLG
notes: as for B1
The molecule B4 showed an EC50 in assay [1] of 0.157 mg/L. Compared with the last molecule, the EC50 is about 4.1-fold higher.

B5: scFv CAR of anti CD30 antibody (T1-159), on CAR-T cells (other)
chain: EVQLLESGGGLVQPGGSLRLSCAASGFTFSSYGMSWVRQAPGKGLEWVSSIYYYSGGTYYADSVKGRFTISRDNSKNTLYLQMNSLRAEDTAVYYCARNDYRNNSDFDYWGQGTLVTVSSGGGGSGGGGSGGGGSQSVLTQPPSASGTPGQRVTISCSGSSSNIGSNYVYWYQQLPGTAPKLLIYRNNQRPSGVPDRFSGSKSGTSASLAISGLRSEDEADYYCAAYYPYYYVFGGGTKLTVLGGQAGQTTTPAPRPPTPAPTIASQPLSLRPEACRPAAGGAVHTRGLDFACDIYIWAPLAGTCGVLLLSLVITLYCKRGRKKLLYIFKQPFMRPVQTTQEEDGCSCRFPEEEEGGCELRVKFSRSADAPAYQQGQNQLYNELNLGRREEYDVLDKRRGRDPEMGGKPRRKNPQEGLYNELQKDKMAEAYSEIGMKGERRRGKGHDGLYQGLSTATKDTYDALHMQALPPR
For the molecule B5, the “tumor death rate on HDLM-2 cells, ratio of CAR-T to the target 0.25” value in assay [2] is at least 50%. In assay [3], the “Cytotoxicity (%) against CD30-expressing cell (SUDHL1), CAR-T/Target 0.11” value stood at 24%; the “Cytotoxicity (%) against CD30-expressing cell (SUDHL1), CAR-T/Target 0.33” value was determined as 58%; the “Cytotoxicity (%) against CD30-expressing cell (SUDHL1), CAR-T/Target 1” value is 88%. In assay [4], the “Cytotoxicity (%) against CD30-expressing cell (CD30-293T), CAR-T/Target 0.11” value is -4%; the “Cytotoxicity (%) against CD30-expressing cell (CD30-293T), CAR-T/Target 0.33” value was 60%; the “Cytotoxicity (%) against CD30-expressing cell (CD30-293T), CAR-T/Target 1” value was determined as 72%.

B6: T1-10 anti-CD30 scFv-Fc (Fc fusion)
scFv: EVQLLESGGGLVQPGGSLRLSCAASGFTFSSYGMSWVRQAPGKGLEWVSYISGGSYYTYYADSVKGRFTISRDNSKNTLYLQMNSLRAEDTAVYYCARYGYGYYDGSFDYWGQGTLVTVSSGGGGSGGGGSGGGGSQSVLTQPPSASGTPGQRVTISCSGSSSNIGSNYVYWYQQLPGTAPKLLIYRNNQRPSGVPDRFSGSKSGTSASLAISGLRSEDEADYYCAADGPYNYVFGGGTKLTVLG
notes: as for B1
Take B6: the EC50 in assay [1] stood at 0.031 mg/L.

B7: T1-2 anti-CD30 scFv-Fc (Fc fusion)
scFv: EVQLLESGGGLVQPGGSLRLSCAASGFTFSGYGMSWVRQAPGKGLEWVSYISGYSYYTYYADSVKGRFTFSRDNSKNTLYLQMNSLRAEDTAVYYCARYDGNGFDYWGQGTLVTVSSGGGGSGGGGSGGGGSQSVLTQPPSASGTPGQRVTISCSGSSSNIGSNYVYWYQQLPGTAPKLLIYRNNQRPSGVPDRFSGSKSGTSASLAISGLRSEDEADYYCAADSSDDSYVFGGGTKLTVLG
notes: Cloned in an scFv-Fc-conjugated form (Zb-Fc); detected with anti-human IgG Fc; also called Zb-Fc form; not shown: Fc of the scFv-Fc (Zb-Fc) form and any junction to it
With B7, in assay [1], a half-maximal response (EC50) required 0.06 mg/L.

B8: T1-8 anti-CD30 scFv-Fc (Fc fusion)
scFv: EVQLLESGGGLVQPGGSLRLSCAASGFTFSSYMSWVRQAPGKGLEWVSSIGSGYYSTYYADSVKGRFTISRDNSKNTLYLQMNSLRAEDTAVYYCARDYYGGFDYWGQGTLVTVSSGGGGSGGGGSGGGGSQSVLTQPPSASGTPGQRVTISCSGSSSNIGSNYVYWYQQLPGTAPKLLIYRNNQRPSGVPDRFSGSKSGTSASLAISGLRSEDEADYYCAAYDSYSYVFGGGTKLTVLG
notes: scFv-Fc-conjugated form (Zb-Fc); also called Zb-Fc form; not shown: Human Fc of the scFv-Fc (Zb-Fc) form and its junction to the scFv
The molecule B8 displayed an EC50 in assay [1] of 0.051 mg/L.

B9: T1-141 anti-CD30 scFv-Fc (Fc fusion)
scFv: EVQLLESGGGLVQPGGSLRLSCAASGFTFSYYDMSWVRQAPGKGLEWVSGIYGSGSTYYADSVKGRFTISRDNSKNTLYLQMNSLRAEDTAVYYCARYSYYDSYSDYFDYWGQGTLVTVSSGGGGSGGGGSGGGGSQSVLTQPPSASGTPGQRVTISCSGSSSNIGSNYVYWYQQLPGTAPKLLIYRNNQRPSGVPDRFSGSKSGTSASLAISGLRSEDEADYYCAAYSYGYYVFGGGTKLTVLG
notes: as for B1
Turning to B9, the 50% effective concentration (EC50) in assay [1] worked out at 0.026 mg/L. This EC50 lies about 2-fold lower than the previous one.

B10: T1-9 anti-CD30 scFv-Fc (Fc fusion)
scFv: EVQLLESGGGLVQPGGSLRLSCAASGFTFSYYGMSWVRQAPGKGLEWVSGIGSYSSYTYYADSVKGRFTISRDNSKNTLYLQMNSLRAEDTAVYYCARYASSPDAYFDYWGQGTLVTVSSGGGGSGGGGSGGGGSQSVLTQPPSASGTPGQRVTISCSGSSSNIGSNYVYWYQQLPGTAPKLLIYRNNQRPSGVPGRFSGSKSGTSASLAISGLRSEDEADYYCAAYYNYNYVFGGGTKLTVLG
notes: as for B1
Consider B10, for which, in assay [1], the EC50 came to 0.026 mg/L.

B11: T1-23 anti-CD30 scFv-Fc (Fc fusion)
scFv: EVQLLESGGGLVQPGGSLRLSCAASGFTFSSYSMSWVRQAPGKGLEWVSGIGYPYYTYYADSVKGRFTISRDNSKNTLYLQMNSLRAEDTAVYYCARYYYDYGFDYWGQGTLVTVSSGGGGSGGGGSGGGGSQSVLTQPPSASGTPGQRVTISCSGSSSNIGSNYVYWYQQLPGTAPKLLIYRNNQRPSGVPDRFSGSKSGTSASLAISGLRSEDEADYYCAAYRSYDYVFGGGTKLTVLG
notes: as for B1
B11 had an EC50 in assay [1] of 0.023 mg/L.

B12: T1-159 anti-CD30 scFv-Fc (Fc fusion)
scFv: EVQLLESGGGLVQPGGSLRLSCAASGFTFSSYGMSWVRQAPGKGLEWVSSIYYYSGGTYYADSVKGRFTISRDNSKNTLYLQMNSLRAEDTAVYYCARNDYRNNSDFDYWGQGTLVTVSSGGGGSGGGGSGGGGSQSVLTQPPSASGTPGQRVTISCSGSSSNIGSNYVYWYQQLPGTAPKLLIYRNNQRPSGVPDRFSGSKSGTSASLAISGLRSEDEADYYCAAYYPYYYVFGGGTKLTVLG
notes: as for B2
As for B12, the midpoint of the response in assay [1], the EC50, lay at 0.26 mg/L.
